Measurements reported in article PMC6754605 (Proceedings of the National Academy of Sciences of the …, 2019).
Where a chain is given by its changes, count along the chain named. Names may count otherwise.

B1: mouse SAA3 F24S/M25S double mutant (natural protein, UniProt P04918 19-122, looked up)
chain: QRWVQSSKEAGQGSRDMWRAYSDMKKANWKNSDKYFHARGNYDAARRGPGGAWAAKVISDAREAVQKFTGHGAEDSRADQFANEWGRSGKDPNHFRPAGLPKRY
B2: mouse SAA3 W71S/V75S double mutant (natural protein, UniProt P04918 19-122, looked up)
chain: B1 chain with S6F, S7M, W53S, V57S

Biological target: the molecule itself
Assay: SEC

Row | Protein | binding result
1 | B1 | binds
2 | B2 | binds
